Data on four substances can be found in PMC6406002, “Comparison of the functional properties of trimeric and monomeric CaiT of Escherichia coli” (Scientific Reports, 2019).

In general, Km refers to the substrate concentration at which the rate is half of its maximum. Usually Vmax stands for the top rate of the reaction or transport when substrate is in excess.

Data set [1] concerns T1, C[N+](C)(C)C[C@H](O)CC(=O)O.
T1 construct: full-length with C-terminal 6His tag (pET21a), expressed in E. coli JW0039 (delta caiT), Ni-NTA purified; homotrimer (D288A and D288R mostly monomeric); DDM-solubilized or in proteoliposomes
Briefly: purified protein. Type of data set: biochemical, Escherichia coli. Particulars: labelled compound, proteoliposomes preloaded with 10 mM L-carnitine, potassium phosphate pH 7.5, 25 °C.

The target in data set [2] is CaiT-M295E (E. coli) (UniProt P31553). Briefly: native gel or EMSA; blue native PAGE, 4–16.5% gradient gel, 5 µg purified protein per lane, in detergent solution. Background: Mobility shift assays separate free from complexed probe on a gel.
Data set [3] has as its target CaiT-R299A (E. coli) (UniProt P31553). The description is as above.

Consider CaiT (Escherichia coli K-12), for which, in data set [1], the Km is recorded as 45.3 ± 6.9 µM and the Vmax turned out to be 2.13 µmol/min/mg. For the substance CaiT (Escherichia coli K-12; D288A), in data set [1] (mostly monomeric variant), the Km came to 114.1 ± 17.9 µM and the maximal velocity (Vmax) worked out at 1.86 µmol/min/mg. In data set [2], “CaiT-M295E (from UniProt P31553 1-504) (natural protein)” showed a percent of the protein in the monomeric state above 80%. For “CaiT-R299A (from UniProt P31553 1-504) (natural protein)”, the percent of the protein in the monomeric state in data set [3] is above 80%.
